What was measured:
[1] = biological target: FcγRIIIa (UniProt P08637); assay: SPR; fold improvement in binding avidity, commercial rituximab as the reference
[2] = biological target: FcγRIIIa (UniProt P08637); assay: SPR (Biacore T200, single cycle kinetics, 25 C); antibody captured by anti-human Fab, FcγRIIIa as analyte; 1:1 Langmuir fit
[3] = biological target: FcγRIIIa (UniProt P08637); assay: SPR; fold improvement in binding avidity against commercial rituximab

Chain of FcγRIIIa (P08637 17-208 limits assumed): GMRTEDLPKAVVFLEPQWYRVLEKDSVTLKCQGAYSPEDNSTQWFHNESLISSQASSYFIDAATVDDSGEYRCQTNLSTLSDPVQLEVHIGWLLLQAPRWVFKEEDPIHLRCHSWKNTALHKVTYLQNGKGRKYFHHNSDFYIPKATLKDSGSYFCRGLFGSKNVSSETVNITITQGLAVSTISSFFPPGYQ

Fold [1] | Kd [2] | koff [2] | kon [2] | Fold [3] | Substance
1 fold | 306 nM | 0.0705 s⁻¹ | 231000 M⁻¹ s⁻¹ |  | Rituximab (commercial sample; Rituxan, Roche) (antibody)
 | 8.18 nM | 0.002 s⁻¹ | 244000 M⁻¹ s⁻¹ | 37.4 fold | Rituximab IgG1 homogeneous glycoform with α2,6-linked 3F^ax-Neu5Ac-terminated biantennary N-glycan (without core fucose) (antibody)
 | 7.67 nM | 0.00206 s⁻¹ | 268000 M⁻¹ s⁻¹ | 39.9 fold | Rituximab IgG1 homogeneous glycoform with α2,6-linked Neu5Ac-terminated biantennary N-glycan (G2S2, without core fucose) (antibody)
